Source: the supplement of paper PMC9170038

Tested on: MS2 coat protein
Assay: apparent KD of MS2 coat protein; designed switch direction (-1 OFF switch, 1 ON switch): -1; higher = weaker reporter binding
In short: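 Transcription of designed RNA switches on Illumina chips was done by stalled E. coli RNA polymerase. SNAP-549-labelled MS2 coat protein was then titrated in doubling steps from 0.7 or 1.5 nM to 3 µM, with steps of 0.8–1.5 h at the lowest and 10–20 min at the highest concentration. The per-design median over clusters of curve-fitted normalised fluorescence is reported as apparent KD.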

[1] = input ligand: microRNA oligo, concentration not stated
[2] = Eterna round: R95, input ligand: FMN 200 uM
[3] = Eterna round: R95, input ligand: microRNA oligo, concentration not stated
[4] = Eterna round: R95, input ligand: none

| Sequence | apparent KD of MS2 coat protein (input ligand: FMN 200 uM) [nM] | apparent KD of MS2 coat protein (input ligand: none) [nM] | apparent KD of MS2 coat protein [1] [nM] | apparent KD of MS2 coat protein [2] [nM] | apparent KD of MS2 coat protein [3] [nM] | apparent KD of MS2 coat protein [4] [nM] |
| --- | --- | --- | --- | --- | --- | --- |
| ACAACCGGAGGAUAUACGUAUUCAUCACUCAACGCGGAACGACAUGAGGAUCACCCAUGUAGAAGGCCGAGAGU [EX2 B.24] (Eterna round: R97, puzzle: Exclusion 2) | 13.5 | 16 | – | – | – | – |
| AUGGGUACUUUCGGAGCGACAUGAGGAUCACCCAUGUAUGUUGAGGAUAUCCACUGCUAAGGACGGGAGAAGGCAGUGUACUGU [Ex NG3 #83] (Eterna round: R96, puzzle: Exclusion NG 3) | 26.1 | 26.4 | 16 | – | – | – |
| AUAAUGUGAGGAUAUCAGUCGACUAGCCUCGGCUAGUCGACUGAGAAGGUACAUGAGGAUCACCCAUGUGGUUC [E4/11-B2] (Eterna round: R97, puzzle: Exclusion 4) | 882 | 429 | – | – | – | – |
| CAUUACUGCAAGCUUUGGGACAUGAGGAUCACCCAUGUUCGUCUUAUUGAUCUAGGUACGCUGACGUACCUAGAUCU [JL-sv1-2.27 Brourd mod] (puzzle: Sensor v3, turn-off variant 1) | – | – | – | 17 | 28.9 | 15.4 |
| UUGUUAUGUGUAGGAUAUGCAUAUUAUUAUUAUGCAGAAGGACAUGAGGAUCACCCAUGUAUAUUAUUAUUAUAUAUUAUAUAU [Title] (Eterna round: R96, puzzle: Exclusion NG 1) | – | – | 21.9 | – | – | – |
| UGUGCUUCAGGAUAUACGUGACGACCGUGAGGUCGAAGGUUACAUGAGGAUCACCCAUGUAGAAGGGAAGUACU [Mat - Exclusion 2 - JL Mod - D29] (Eterna round: R97, puzzle: Exclusion 2) | 66.8 | 33 | – | – | – | – |
| UCGUUCCGUGUAGGAUAUUGGUCUCCCUCGGGCCGAGAAGGACAUGAGGAUCACCCAUGUAUGUUAUUAUCGCGCGUGGCGCAU [Design 90] (Eterna round: R96, puzzle: Exclusion NG 1) | 29.5 | 24.1 | 17.8 | – | – | – |
| AAGGAUAGAGGAUAUAUAUAGAUACAGAUUCAUGUAGAACUACAUGAGGAUCACCCAUGUAGAAGGCUAUCCUA [Fiskers Ex 2 - 10] (puzzle: Exclusion 2) | – | – | – | – | 14.7 | – |
| CAGUACAGAGGAUAUACAUGAGGAUCACCCAUGUGUUUCAGGUACGAAAGUACCGAAUGUAGAAGGCUGUACUG [jl-ex3-4.25 salish99 mod] (Eterna round: R97, puzzle: Exclusion 3) | 244 | 25.6 | – | – | – | – |
| CGGAUGUGAGGAUAUACAUGAGGAUCACCCAUGUGUGCCAGCUAGAUGACUGGCACUUGUAGAAGGCACGUCUG [Mat - Exclusion 3 - Mod of JL D91] (Eterna round: R96, puzzle: Exclusion 3) | 25.5 | 16.1 | 11.3 | – | – | – |
| GAUUAUGCGAGCUUUAGGGACAUGAGGAUCACCCAUGUUCGUCUUAUUAGUCUGGGUGCGCUAACAUACCUAAAUCU [JMF 53] (puzzle: Sensor v3, turn-off variant 1) | – | – | – | 90.1 | 148 | 175 |
| UAUUAACAAGCGAGAUCCCACAUGAGGAUCACCCAUGUGCUCGUCUUAUAAGGUACUGUGACGAAAGUCACGGUACC [Sensor 3, v1 - 91 v2] (Eterna round: R97, puzzle: Sensor, turn-off variant 1) | 17 | 15.7 | – | – | – | – |
| ACAAGAUCGGAAGGAUAUUGUACAUGAGGAUCACCCAUGUAAUAAAUGAGGAUCACGGAUGUAGACAAGAAGGUCCGGAUAAGA [Ostracism 4 - Jieux - Exclusion NG 2] (Eterna round: R96, puzzle: Exclusion NG 2) | 45.6 | 36.2 | 30.8 | – | – | – |
| CGUCAGUGAGGAUAUGGUAUCGUUUACAUGAGGAUCACCCAUGUUUCAUGGGACUAGAGACUAGAAGGUACUGACG [EX5 #43] (Eterna round: R97, puzzle: Exclusion 5) | 408 | 579 | – | – | – | – |
| CAUACACAUGAGGAUCACCCAUGUGAGGAUAUGCGUACGUUGUCCGUAGGCGACGUGCGCAGAAGGCGCUUGGU [JL-ex1-3.18 Eli mod] (puzzle: Exclusion 1) | – | – | – | – | 49 | – |
| AUUUUGUCAGGAUAUGACUAGUAGGACGAGAGUGCUACUACUUAGAAGGGACAUGAGGAUCACCCAUGUAUUCC [Bring Us a Shrubbery-09] (puzzle: Exclusion 4) | – | – | – | – | 14.1 | – |
| GGUCAAGGACAGCUCCGCGCUGCCCUUGACCGCUCAUUUACAUGAGGAUCACCCAUGUUUUUUGCUUGUCUUGUUUC [Atedorgela] (puzzle: Sensor v3, turn-off variant 2) | – | – | – | 20 | 110 | 24.2 |
| AUUUAUAAUGUAGGAUAUGGAUUCGAAACGUAUCCAGAAGGACAUGAGGAUCACCCAUGUACAUGAGGAUCACCCAAUUUAUUA [Fiskers ExNg1 - 10] (Eterna round: R96, puzzle: Exclusion NG 1) | 98 | 59.3 | 46.7 | – | – | – |
| CCAGCGUAUGUUAGGAUAUGCUGGUCCUUGGAUCAGCAGAAGGAACAUGAGGAUCACCCAUGUAGAAUCGUUGG [Mod of JL 15 - Jieux - Brourd's mod of Exclusion 4] (Eterna round: R97, puzzle: Brourd's mod of Exclusion 4) | 35 | 20.3 | – | – | – | – |
| AACAAUAAGGAGGAUAUCGUAUCGGAAACGAUACGAGAAGGCUUAACAUGAGGAUCACCCAUGUUCCUCAAUAA [Fiskers Ex 6 - 23] (puzzle: Exclusion 6) | – | – | – | – | 33.1 | – |
| UGGGUCACAGGAUAUACAUGAGGAUCACCCAUGUCGUAUUUCGUGGCGGAGAGCUCGAGUAGAAGGGUGCAUCC [Malarala] (Eterna round: R96, puzzle: Exclusion 3) | 297 | 148 | 58.9 | – | – | – |
| UUUAAUUUUUUUUUUUUACAAGCUUUUUGCUCGUCUUAUACAUGAGGAUCACCCAUGUAGGUGAAGAGUAAAUUAUC [JMF 58] (puzzle: Sensor v3, turn-off variant 2) | – | – | – | 19.4 | 109 | 16.5 |
| AGAUGUACCUAGGAUAUCCGUCUUAUUGGACUAGGAGAAGGAGGUACAUGAGGAUCACCCAUGUAUGACUCCUG [Veisteer] (puzzle: Exclusion 6) | – | – | – | – | 9.08 | – |
| UGCUGACGAGGAUAUACAUGAGGAUCACCCAUGUUGGUUCAGCGACGAUAGUCGCAAUGUAGAAGGCGUCAGCU [E3/9-A3] (Eterna round: R97, puzzle: Exclusion 3) | 202 | 765 | – | – | – | – |
| CUGCUCCGUGUAGGAUAUGCAUACUCCCAUUAUGCAGAAGGACAUGAGGAUCACCCAUGUAUGUUAUUAUCAUGUGUUGCAUGC [Design 11] (Eterna round: R96, puzzle: Exclusion NG 1) | 164 | 37.3 | 33.9 | – | – | – |
| GGGUGACAUGAGGAUCACCCAUGUCAGGAUAUGAUUCUGCUUGCGAAAGCGAGUAGAAUCAGAAGGGACAUCCC (Eterna round: R97, puzzle: Exclusion 1) | 293 | 65.2 | – | – | – | – |
